B1: AmPDH (Agaricus meleagris pyranose dehydrogenase, pdh1) (Macropsalliota meleagris) (protein)
chain: AITYQHPDDLPSGVDYDFIVAGGGTAGLVVASRLSENSNWKVLVIEAGPSNKDAFVTRVPGLASTLGAGSPIDWNYTTIPQDGLDGRSLDYPRAKILGGCSTHNGMVYTRGSKDDWNSWAGIIGDQGLGWDSILPAIKKAEKFTQDFTDQSVKGHIDPSVHGFDGKLSVSAAYSNISFNDLLFETTKELNAEFPFKLDMNDGKPIGLGWTQYTIDNHAERSSSATSYLESTGDNVHVLVNTLVTRVLSASGNGTDFRKVEFAVDANSPKKQLEAKKEVIVAGGVIASPQILMNSGIGERKVLQAVGIDTLIDNPSVGKNLSDQGATSVMFDTTLPSTDFDVDAALTEWTNSHTGPLARGARLNHLTFVRLPDDKLNGQDPSSGKNSPHIEFQFAQITPQVPTLGVPKQAPLPAANSYRLLLQLAVVNLYSISRGSISLSDNNPFTYPLIDLNMFKEDIDIAILREGIRSAGRMFSSKAFKNSVNKFVYPPADATSDEDLDAFLRSSTFSYVHGVGTLSMSPKGASWGVVNPDFKVKGTSGLRVVDASVIPHAPAAHTQLPVYAFAEYASALIAKSYN
notes: monomeric glycoprotein about 90 kDa, 64 kDa deglycosylated
B2: AmPDH (Agaricus meleagris pyranose dehydrogenase, pdh1) (Macropsalliota meleagris; H128Y) (protein)
chain: AITYQHPDDLPSGVDYDFIVAGGGTAGLVVASRLSENSNWKVLVIEAGPSNKDAFVTRVPGLASTLGAGSPIDWNYTTIPQDGLDGRSLDYPRAKILGGCSTYNGMVYTRGSKDDWNSWAGIIGDQGLGWDSILPAIKKAEKFTQDFTDQSVKGHIDPSVHGFDGKLSVSAAYSNISFNDLLFETTKELNAEFPFKLDMNDGKPIGLGWTQYTIDNHAERSSSATSYLESTGDNVHVLVNTLVTRVLSASGNGTDFRKVEFAVDANSPKKQLEAKKEVIVAGGVIASPQILMNSGIGERKVLQAVGIDTLIDNPSVGKNLSDQGATSVMFDTTLPSTDFDVDAALTEWTNSHTGPLARGARLNHLTFVRLPDDKLNGQDPSSGKNSPHIEFQFAQITPQVPTLGVPKQAPLPAANSYRLLLQLAVVNLYSISRGSISLSDNNPFTYPLIDLNMFKEDIDIAILREGIRSAGRMFSSKAFKNSVNKFVYPPADATSDEDLDAFLRSSTFSYVHGVGTLSMSPKGASWGVVNPDFKVKGTSGLRVVDASVIPHAPAAHTQLPVYAFAEYASALIAKSYN
notes: as for B1

Substrate: O=C1C(Cl)=CC(=Nc2ccc(O)cc2)C=C1Cl
Test: steady-state kinetics, DCIP reduction
Type: biochemical, Macropsalliota meleagris
Details: apparent, electron acceptor, 25 mM D-glucose as donor, pH 4, 30 °C
Excerpt: steady-state kinetics, DCIP reduction on AmPDH (Agaricus meleagris pyranose dehydrogenase, pdh1)

| Protein | Km [µM] | kcat [s⁻¹] | kcat/Km [M⁻¹ s⁻¹] |
| --- | --- | --- | --- |
| B1 | 140 ± 10 | 40.7 ± 4.1 | 291000 |
| B2 | 20 ± 10 | 2.8 ± 0.5 | 140000 |

Reference: paper PMC3948749, “Engineering of Pyranose Dehydrogenase for Increased Oxygen Reactivity” (PLoS ONE, 2014)
